2 molecules from article PMC10259489, “Identification of epigenetic modulators as determinants of nuclear size and shape” (eLife, 2023) can be followed below.

Experiment [1] addresses T1, GST-lamin A (aa 389–646), entire Ig-fold and C-terminus (human, UniProt P02545 389-646).
T1 construct: pGEX4T1 construct; also called full-length lamin A tail; source: E. coli Rosetta 2, purified (glutathione Sepharose 4B); not shown: GST, N-terminal, kept
T1 sequence (looked up): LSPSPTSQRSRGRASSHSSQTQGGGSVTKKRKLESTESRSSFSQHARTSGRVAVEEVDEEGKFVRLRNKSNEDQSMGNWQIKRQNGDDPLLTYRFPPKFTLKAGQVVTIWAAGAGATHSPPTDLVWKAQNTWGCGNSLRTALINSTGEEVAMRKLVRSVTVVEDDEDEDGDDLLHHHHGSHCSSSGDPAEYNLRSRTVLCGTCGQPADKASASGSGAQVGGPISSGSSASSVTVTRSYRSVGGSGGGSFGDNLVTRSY
In words: pull-down; calf thymus histone pull-down with GST-lamin A (wild type or C522A) and GST-lamin C (389–572) co-incubated, with or without DTT. Conditions: both partners purified.

Experiment [2] has as its target T2, histone H3R8me2/K9me2 peptide (R8me2, K9me2).
T2 chain: ARTKQTARKSTGGKAPRKQ
In words: peptide or protein array; MODified histone peptide array (Active Motif, 384 peptides spotted); 10 nM purified GST-lamin A (pACS37) in 100 mM KCl, 20 mM HEPES pH 7.5, 1 mM EDTA, 0.1 mM DTT, 10% glycerol, room temperature 1 hr; detected with anti-GST and HRP secondary, ECL. To be noted: both partners purified.

B1: GST-lamin C (aa 389–572), C-terminal region of lamin C (domain or fragment, human, UniProt P02545-2 389-572, looked up)
chain: LSPSPTSQRSRGRASSHSSQTQGGGSVTKKRKLESTESRSSFSQHARTSGRVAVEEVDEEGKFVRLRNKSNEDQSMGNWQIKRQNGDDPLLTYRFPPKFTLKAGQVVTIWAAGAGATHSPPTDLVWKAQNTWGCGNSLRTALINSTGEEVAMRKLVRSVTVVEDDEDEDGDDLLHHHHVSGSRR
notes: pGEX4T1 construct; source: E. coli Rosetta 2, purified (glutathione Sepharose 4B); not shown: GST, N-terminal, kept
Take B1: the binding result in experiment [1] was “binds”.

B2: GST-lamin A (506–646) (domain or fragment, human, UniProt P02545 506-646, looked up)
chain: HSPPTDLVWKAQNTWGCGNSLRTALINSTGEEVAMRKLVRSVTVVEDDEDEDGDDLLHHHHGSHCSSSGDPAEYNLRSRTVLCGTCGQPADKASASGSGAQVGGPISSGSSASSVTVTRSYRSVGGSGGGSFGDNLVTRSY
notes: detected by anti-GST; also called GST-lamin A (pACS37); source: E. coli Rosetta 2, purified (glutathione Sepharose 4B); not shown: GST, N-terminal, kept
On to B2, for which, in experiment [2], the “fold signal against H3K9me2” value was about 5 fold.
